Consider three molecules from article PMC4446428, “A novel RNA binding surface of the TAM domain of TIP5/BAZ2A mediates epigenetic regulation of rRNA genes”.

Usually Kd stands for the equilibrium constant for the complex coming apart. Low readings indicate higher affinity, high ones lower affinity.

In series [1] the test system is TIP5/TAM-AT (Homo sapiens). The series is described as follows: filter binding (Scatchard). As to conditions: 5 mM Mg2+, protein preincubated with 4x excess unlabeled MCS-RNA, EMSA: 12 mM Tris-HCl pH 8.0, 100 mM KCl, 5 mM MgCl2, 0.1 mM EDTA, 0.5 mM DTT, 3% glycerol, on ice, filter binding: 10 mM Tris-HCl pH 7.4, 100 mM KCl. (In general: In EMSA bound probe runs differently from free probe, usually more slowly.)

The target of series [2] is T1, TIP5/TAM (Homo sapiens, UniProt Q9UIF9 516-623).
T1 sequence: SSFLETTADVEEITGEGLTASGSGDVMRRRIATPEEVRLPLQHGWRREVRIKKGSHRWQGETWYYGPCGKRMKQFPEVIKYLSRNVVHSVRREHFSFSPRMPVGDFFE
The series is described as follows: NMR titration; negligible shift changes; EMSA: 12 mM Tris-HCl pH 8.0, 100 mM KCl, 5 mM MgCl2, 0.1 mM EDTA, 0.5 mM DTT, 3% glycerol, on ice; filter binding: 10 mM Tris-HCl pH 7.4, 100 mM KCl, 5 mM MgCl2, on ice; NMR: 20 mM Na phosphate pH 7.0, 50 mM NaCl, 1 mM DTT, 298 K (TAM-AT) or 293 K (TAM). To be noted: protein: recombinant; tags: His6-GB1, TEV-removed; label: none; single-stranded.

In series [3] the target is T1, TIP5/TAM. The series is described as follows: NMR titration; EMSA: 12 mM Tris-HCl pH 8.0, 100 mM KCl, 5 mM MgCl2, 0.1 mM EDTA, 0.5 mM DTT, 3% glycerol, on ice; filter binding: 10 mM Tris-HCl pH 7.4, 100 mM KCl, 5 mM MgCl2, on ice; NMR: 20 mM Na phosphate pH 7.0, 50 mM NaCl, 1 mM DTT, 298 K (TAM-AT) or 293 K (TAM). As to conditions: protein: recombinant; tags: His6-GB1, TEV-removed; label: none; hairpin.

With pRNA (mouse rDNA -204/-1), in series [1], the Kd came to 5.5 nM.

In the case of UUUUUUUUUUUUU (ssRNA) [13-mer poly-U RNA], the binding result in series [2] is “no binding”.

Consider GGCGCAUCGGCGCC (structured_RNA) [Xist A-repeat RNA hairpin], for which the binding result in series [3] was “binds”.
